Test results from article PMC4081072, “Structure and semi-sequence-specific RNA binding of Nrd1”.

T1: Nrd1 307-491 H376A (Saccharomyces cerevisiae, UniProt P53617 307-491, H376A)
T1 sequence: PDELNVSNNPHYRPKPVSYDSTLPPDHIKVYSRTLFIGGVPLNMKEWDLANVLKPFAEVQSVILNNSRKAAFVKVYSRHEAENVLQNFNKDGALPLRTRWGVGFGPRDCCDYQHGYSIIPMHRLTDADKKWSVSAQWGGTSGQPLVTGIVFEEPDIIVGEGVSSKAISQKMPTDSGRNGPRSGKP

T2: Nrd1 307-491 D417A (Saccharomyces cerevisiae, UniProt P53617 307-491, D417A)
T2 sequence: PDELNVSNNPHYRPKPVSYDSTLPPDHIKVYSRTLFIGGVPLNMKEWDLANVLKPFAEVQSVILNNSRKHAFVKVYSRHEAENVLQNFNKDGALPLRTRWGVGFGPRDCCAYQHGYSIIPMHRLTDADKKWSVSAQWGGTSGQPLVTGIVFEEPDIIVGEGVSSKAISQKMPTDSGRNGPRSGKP

T3: Nrd1 307-491 WT (Saccharomyces cerevisiae, UniProt P53617 307-491)
T3 sequence: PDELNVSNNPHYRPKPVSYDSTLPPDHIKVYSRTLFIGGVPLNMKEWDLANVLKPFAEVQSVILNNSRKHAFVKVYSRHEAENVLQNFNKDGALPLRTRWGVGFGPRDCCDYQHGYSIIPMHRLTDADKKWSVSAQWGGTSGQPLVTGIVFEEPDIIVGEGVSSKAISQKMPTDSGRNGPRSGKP

T4: Nrd1 307-491 R429D (Saccharomyces cerevisiae, UniProt P53617 307-491, R429D)
T4 sequence: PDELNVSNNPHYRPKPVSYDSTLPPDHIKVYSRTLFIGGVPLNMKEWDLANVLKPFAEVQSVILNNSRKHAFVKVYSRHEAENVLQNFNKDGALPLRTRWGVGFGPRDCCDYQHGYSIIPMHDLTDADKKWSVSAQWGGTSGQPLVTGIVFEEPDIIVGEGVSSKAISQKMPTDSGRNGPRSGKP

T5: Nrd1 307-491 F342A (Saccharomyces cerevisiae, UniProt P53617 307-491, F342A)
T5 sequence: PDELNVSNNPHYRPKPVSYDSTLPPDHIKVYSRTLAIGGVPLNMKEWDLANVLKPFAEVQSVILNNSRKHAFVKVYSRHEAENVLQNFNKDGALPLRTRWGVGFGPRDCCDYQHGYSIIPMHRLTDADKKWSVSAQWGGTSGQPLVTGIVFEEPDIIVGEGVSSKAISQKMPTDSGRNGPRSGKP

T6: Nrd1 307-491 T431R (Saccharomyces cerevisiae, UniProt P53617 307-491, T431R)
T6 sequence: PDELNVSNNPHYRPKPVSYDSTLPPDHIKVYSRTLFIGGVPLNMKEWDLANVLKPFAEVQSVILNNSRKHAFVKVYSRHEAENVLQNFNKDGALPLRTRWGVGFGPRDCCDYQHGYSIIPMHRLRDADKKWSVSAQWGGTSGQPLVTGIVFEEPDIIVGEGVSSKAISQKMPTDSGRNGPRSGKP

T7: Nrd1 307-491 F378A (Saccharomyces cerevisiae, UniProt P53617 307-491, F378A)
T7 sequence: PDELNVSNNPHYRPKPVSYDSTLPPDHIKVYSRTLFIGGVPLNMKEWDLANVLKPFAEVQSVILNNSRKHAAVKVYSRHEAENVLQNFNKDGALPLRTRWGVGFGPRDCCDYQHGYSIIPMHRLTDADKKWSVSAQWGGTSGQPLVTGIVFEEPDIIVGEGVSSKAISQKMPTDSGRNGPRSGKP

T8: Nrd1 307-491 G409A (Saccharomyces cerevisiae, UniProt P53617 307-491, G409A)
T8 sequence: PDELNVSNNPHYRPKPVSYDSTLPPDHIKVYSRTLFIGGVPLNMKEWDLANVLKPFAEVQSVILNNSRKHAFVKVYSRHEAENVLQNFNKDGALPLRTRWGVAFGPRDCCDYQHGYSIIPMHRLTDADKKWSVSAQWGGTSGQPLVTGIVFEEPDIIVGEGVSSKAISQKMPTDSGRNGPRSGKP

T9: Nrd1 307-491 K435D (Saccharomyces cerevisiae, UniProt P53617 307-491, K435D)
T9 sequence: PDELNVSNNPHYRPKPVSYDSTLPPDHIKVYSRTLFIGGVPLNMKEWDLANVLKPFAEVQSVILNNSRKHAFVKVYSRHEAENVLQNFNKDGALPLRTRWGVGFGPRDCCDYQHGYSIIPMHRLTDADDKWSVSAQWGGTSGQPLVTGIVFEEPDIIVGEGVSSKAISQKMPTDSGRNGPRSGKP


Assays:
Nrd1 307-491 H376A = target: T1, Nrd1 307-491 H376A; assay: fluorescence anisotropy; FA: 10 nM RNA, 50 mM sodium phosphate pH 8, 150 mM NaCl, 10 mM beta-mercaptoethanol, 20 C (protein stock in 300 mM NaCl); NMR: same buffer with 300 mM NaCl, 20; conditions: protein: recombinant; tags: C-terminal His6; label: 5' fluorescein or TAMRA (FA); unlabeled (NMR)
Nrd1 307-491 D417A = target: T2, Nrd1 307-491 D417A; assay: as above; conditions: protein: recombinant; tags: C-terminal His6; label: 5' fluorescein or TAMRA (FA); unlabeled (NMR)
Nrd1 307-491 WT [1] = target: T3, Nrd1 307-491 WT; assay: as above; conditions: protein: recombinant, tags: C-terminal His6
Nrd1 307-491 R429D = target: T4, Nrd1 307-491 R429D; assay: as above; conditions: protein: recombinant; tags: C-terminal His6; label: 5' fluorescein or TAMRA (FA); unlabeled (NMR)
Nrd1 307-491 F342A = target: T5, Nrd1 307-491 F342A; assay: as above; conditions: protein: recombinant; tags: C-terminal His6; label: 5' fluorescein or TAMRA (FA); unlabeled (NMR)
Nrd1 307-491 T431R = target: T6, Nrd1 307-491 T431R; assay: as above; conditions: protein: recombinant; tags: C-terminal His6; label: 5' fluorescein or TAMRA (FA); unlabeled (NMR)
Nrd1 307-491 F378A = target: T7, Nrd1 307-491 F378A; assay: as above; conditions: protein: recombinant; tags: C-terminal His6; label: 5' fluorescein or TAMRA (FA); unlabeled (NMR)
Nrd1 307-491 G409A = target: T8, Nrd1 307-491 G409A; assay: as above; conditions: protein: recombinant; tags: C-terminal His6; label: 5' fluorescein or TAMRA (FA); unlabeled (NMR)
Nrd1 307-491 K435D = target: T9, Nrd1 307-491 K435D; assay: as above; conditions: protein: recombinant; tags: C-terminal His6; label: 5' fluorescein or TAMRA (FA); unlabeled (NMR)
Nrd1 307-491 WT [2] = target: T3, Nrd1 307-491 WT; assay: fluorescence anisotropy; prolonged incubation between aliquots; FA: 10 nM RNA, 50 mM sodium phosphate pH 8, 150 mM NaCl, 10 mM beta-mercaptoethanol, 20 C (protein stock in 300 mM NaCl); NMR: same buffer with 300 mM NaCl, 20; conditions: protein: recombinant; tags: C-terminal His6; label: 5' fluorescein or TAMRA (FA); unlabeled (NMR); may form quadruplex when free

| Binder | Kd (Nrd1 307-491 WT [1]; label: 5' fluorescein or TAMRA) [µM] | other results |
| --- | --- | --- |
| GCGGGGC (ssRNA) |  | Kd (Nrd1 307-491 H376A): 37.5 ± 3.7 µM; Kd (Nrd1 307-491 D417A): 31.7 ± 6 µM; Kd (Nrd1 307-491 WT [1]; label: 5' fluorescein or TAMRA (FA), unlabeled (NMR)): 9.8 ± 0.3 µM; Kd (Nrd1 307-491 R429D): 60.1 ± 3.5 µM; Kd (Nrd1 307-491 F342A): 29.5 ± 4 µM; Kd (Nrd1 307-491 T431R): 48 ± 2.9 µM; Kd (Nrd1 307-491 F378A): 73.4 ± 10.7 µM; Kd (Nrd1 307-491 G409A): 30.3 ± 3.9 µM; Kd (Nrd1 307-491 K435D): 50.5 ± 10.8 µM |
| AAAAAAA (ssRNA) [A7] | 32.1 ± 0.9 |  |
| CACACAC (ssRNA) | 108 ± 4 |  |
| UUUUUUU (ssRNA) [U7] | 69.8 ± 3.2 |  |
| UGGA (ssRNA) | 94.1 ± 3.9 |  |
| GUAAUGAAUUAAGUCUUGAUAUAUAA (ssRNA) [win78wt] | 1.5 ± 0.1 |  |
| GGGGGGG (ssRNA) [G7] |  | Kd (Nrd1 307-491 WT [2]): 5.7 ± 1.2 µM |
| AUAUAUA (ssRNA) | 11.3 ± 0.5 |  |
| AGCGUGAAUUAAGUCUUGAUAUAUAA (ssRNA) [win78dNrd1] | 2.5 ± 0.2 |  |
| UCUUG (ssRNA) | 41.1 ± 2.7 |  |
| AUUAUUA (ssRNA) | 14.8 ± 0.4 |  |
| AGCGUGAAUUAAGUCUUGCACACACA (ssRNA) [win78dNrd1dAUrichCA] | 5.4 ± 0.2 |  |
| CAGCGUC (ssRNA) | 37.7 ± 1.1 |  |
| CCCCUGAAUUAAGCCCCCCCCCCCCC (ssRNA) [win78polyC] | 7.2 ± 0.5 |  |
| AGCGUGAAUUAAGAGCGUAUAUAUAA (ssRNA) [win78dNrd1dNab3] | 7.9 ± 0.3 |  |
| UGGUGGU (ssRNA) | 6.8 ± 0.6 |  |
| GCGGGCG (ssRNA) | 13.2 ± 0.5 |  |
| GUUGUUG (ssRNA) | 13 ± 0.7 |  |
